From patent US20230265151A1, “GIP/GLP1 CO-AGONIST COMPOUNDS” (priority 2020, published 2023) come the findings set out here.

Positions count from the first letter of the chain named.

One experiment has as its target hGLP-1R (Homo sapiens, UniProt P43220). Briefly: Functional cAMP formation (HTRF) in HEK-293 clonal cells expressing hGLP-1R, 0.1% bovine casein, without or with 1.0% human serum albumin. Further details: expressed in transfected cells. Format: cell-based. The conditions noted are these: 37° C. The procedure, abridged:
(§1)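 Cells were stimulated with peptide for 30 min at 37° C, then lysed in buffer carrying cAMP-d2 and anti-cAMP Eu3+-cryptate for a competitive HTRF read after at least 60 min at room temperature. The 665/620 nm ratio was converted to nM cAMP against a standard curve.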
On the technique in general: cAMP levels reflect the balance of adenylyl cyclase and phosphodiesterase activity.

For a further experiment, the target named is T1, hGIPR (Homo sapiens, UniProt P48546).
T1 construct: expressed in transfected cells
T1 sequence (P48546 22-466): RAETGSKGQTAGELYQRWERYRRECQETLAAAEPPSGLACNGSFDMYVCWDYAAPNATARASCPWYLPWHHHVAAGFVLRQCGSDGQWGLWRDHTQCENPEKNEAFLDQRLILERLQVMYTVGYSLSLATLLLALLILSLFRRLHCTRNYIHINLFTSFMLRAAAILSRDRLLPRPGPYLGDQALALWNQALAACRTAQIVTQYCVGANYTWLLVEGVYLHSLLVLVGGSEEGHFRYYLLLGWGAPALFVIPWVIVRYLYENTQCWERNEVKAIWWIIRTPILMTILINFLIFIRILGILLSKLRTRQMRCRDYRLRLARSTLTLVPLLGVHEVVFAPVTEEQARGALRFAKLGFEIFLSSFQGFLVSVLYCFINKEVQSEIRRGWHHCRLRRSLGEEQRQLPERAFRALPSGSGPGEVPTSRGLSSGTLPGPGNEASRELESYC
The experiment in a line: Functional cAMP formation (HTRF) in HEK-293 clonal cells expressing hGIPR, 0.1% bovine casein, without or with 1.0% human serum albumin. Format: cell-based. To be noted: 0.1% bovine casein and 1.0% human serum albumin, 37° C.; geometric mean; read-out: hGIPR EC50, nM (SEM, n). Summed up:
as §1

The target of experiment [1] is T2, human GLP-1 receptor (hGLP-1R) (Homo sapiens, UniProt P43220).
T2 construct: expressed in transfected cells; crude membranes
The experiment in a line: [125I]-GLP-1 binding, SPA with membranes of HEK293 cells expressing hGLP-1R. To be noted: human GLP-1R; geometric mean (SEM, n); read-out: Binding Affinity Ki, nM (SEM, n) hGLP-1R. Here is the method:
Two methods are used for the preparation of crude cell membranes.
Method 1: Frozen cell pellets are lysed on ice in hypotonic buffer containing 50 mM Tris HCl, pH 7.5, and Roche Complete™ Protease Inhibitors with EDTA. […] The homogenate is centrifuged at 4° C. at 1100 × g for 10 minutes. The supernatant is collected and stored on ice while the pellets are resuspended in homogenization buffer and rehomogenized as described above. The homogenate is centrifuged at 1100 × g for 10 minutes. The second supernatant is combined with the first supernatant and centrifuged at 35000 × g for 1 hour at 4° C. The resulting membrane pellet is resuspended in homogenization buffer containing protease inhibitors at approximately 1 to 3 mg/mL, quick frozen in liquid nitrogen and stored as aliquots in a -80° C. freezer until use.
The homogenate is centrifuged at 4° C. at 1800 × g for 15 minutes. The supernatant is collected and stored on ice while the pellets are resuspended in homogenization buffer (without DNAse I) and rehomogenized as described above. The homogenate is centrifuged at 1800 × g for 15 minutes. The second supernatant is combined with the first supernatant and centrifuged an additional time at 1800 × g for 15 minutes. The overall supernatant is then centrifuged at 25000 × g for 30 minutes at 4° C. The resulting membrane pellet is resuspended in homogenization buffer (without DNAse I) containing protease inhibitors at approximately 1 to 3 mg/mL and stored as aliquots in a -80° C. freezer until use.
The human GLP-1 receptor binding assay is performed using an SPA format with WGA beads. The binding buffer contains 25 mM HEPES, pH 7.4, 2.5 mM CaCl2, 1 mM MgCl2, 0.1% (w/v) bacitracin, 0.003% (w/v) TWEEN®-20, and Roche Complete™ Protease Inhibitors without EDTA.
Raw CPM data for concentration curves of peptides, Gcg, GLP-1, or GIP are converted to percent inhibition by subtracting nonspecific binding (binding in the presence of excess unlabeled Gcg, GLP-1, or GIP, respectively) from the individual CPM values and dividing by the total binding signal, also corrected by subtracting nonspecific binding. Data are analyzed using four-parameter (curve maximum, curve minimum, IC50, Hill slope) nonlinear regression routines (Genedata Screener, version 12.0.4, Genedata AG, Basal, Switzerland). […] Values for Ki are reported as the geometric mean, with error expressed as the standard error of the mean (SEM) and n is equal to the number of independent replicates (determined in assays performed on different days). Geometric Means are calculated as follows: […]
The Ki Ratio (Ki for native control peptide/Ki for test compound) at each receptor and each species is calculated. The Ki Ratio is a rapid indication of the apparent affinity of a peptide compared to the native control peptide.
n=⅟x means that only one value out of the total number of replicates (x) is used to express the mean. SEM is only calculated when n=2 or greater non-qualified results exist. Means are expressed as GeoMetric means with the standard error of the mean (SEM) and the number of replicates (n) indicated in parenthesis.

The next experiment addresses human GLP-1 receptor (human, UniProt P43220 24-463). Briefly: cell-based or functional assay.
A further experiment addresses human glucagon receptor (human, UniProt P47871 26-477). The experiment in a line: cell-based or functional assay.
The next experiment has as its target T3, human GIP receptor (human, UniProt P48546 22-466).
T3 sequence (looked up): T1 sequence (P48546 22-466)
Briefly: cell-based or functional assay.

hGLP-1R, sequence (P43220 24-463): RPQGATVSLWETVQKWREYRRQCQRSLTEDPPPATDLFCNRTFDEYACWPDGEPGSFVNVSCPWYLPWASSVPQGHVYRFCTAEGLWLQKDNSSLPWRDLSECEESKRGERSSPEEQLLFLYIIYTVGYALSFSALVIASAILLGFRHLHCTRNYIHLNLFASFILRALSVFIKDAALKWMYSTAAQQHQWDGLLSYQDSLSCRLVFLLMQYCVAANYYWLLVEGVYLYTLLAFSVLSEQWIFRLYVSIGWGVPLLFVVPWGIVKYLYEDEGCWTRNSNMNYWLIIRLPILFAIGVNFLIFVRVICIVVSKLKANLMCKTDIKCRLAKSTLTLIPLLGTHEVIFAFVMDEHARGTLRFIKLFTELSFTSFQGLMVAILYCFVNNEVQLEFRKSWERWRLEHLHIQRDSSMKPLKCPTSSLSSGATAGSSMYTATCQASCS
T2 sequence (P43220 24-463): as above

In general, EC50 refers to the midpoint of the concentration-response curve. The Emax is the greatest response seen or fitted, relative to the assay's reference. The Ki is the equilibrium dissociation constant of an inhibitor or competing ligand from its target. Take `CCCCCCCCCCCCCCCC(=O)N[C@@H](CCC(=O)NCCOCCOCC(=O)NCCOCCOCC(=O)NCCCC[C@H](NC(=O)CNC(=O)CNC(=O)[C@H](CCC(=O)O)NC(=O)[C@@H](NC(=O)[C@H](CC(C)C)NC(=O)[C@](C)(Cc1ccc(O)cc1)NC(=O)[C@@H](CCC(=O)O)NC(=O)[C@@H](NC(=O)[C@H](Cc1ccccc1)NC(=O)[C@H](CCC(=O)O)NC(=O)C(C)(C)NC(=O)[C@H](CCC(N)=O)NC(=O)[C@H](C)NC(=O)[C@H](CCCCNC(=O)COCCOCCNC(=O)COCCOCCNC(=O)CC[C@H](NC(=O)CCCCCCCCCCCCCCC)C(=O)O)NC(=O)[C@H](CCCN)NC(=O)[C@H](CC(=O)O)NC(=O)[C@H](CC(C)C)NC(=O)[C@](C)(CC(C)C)NC(=O)[C@@H](NC(=O)[C@H](CO)NC(=O)[C@H](Cc1ccncc1)NC(=O)[C@H](CC(=O)O)NC(=O)[C@H](CO)NC(=O)[C@@H](NC(=O)[C@](C)(Cc1ccccc1F)NC(=O)[C@@H](NC(=O)CNC(=O)[C@H](CCC(=O)O)NC(=O)C(C)(C)NC(=O)[C@@H](N)Cc1ccc(O)cc1)[C@@H](C)O)[C@@H](C)O)[C@@H](C)CC)[C@@H](C)CC)[C@@H](C)CC)C(=O)N[C@@H](CO)C(=O)N[C@@H](CO)C(=O)NCC(=O)N[C@@H](C)C(=O)N1CCC[C@H]1C(=O)N1CCC[C@H]1C(=O)N1CCC[C@H]1C(=O)N[C@@H](CO)C(N)=O)C(=O)O` [Example 7]: the EC50 was found to be 2.74 nM at hGLP-1R (0.1% bovine casein and 1.0% human serum albumin, geometric mean, read-out: hGLP-1R EC50, nM (SEM, n)); 0.566 nM on hGIPR. Moreover, at hGLP-1R (HEK293, percent of maximal response to GLP-1(7-36)NH2, 0.1% bovine casein, arithmetic mean, read-out: hGLP-1R Emax, % ± SEM), the Emax is 95.4 ± 5.03%. Moreover, in experiment [1], the Ki turned out to be 0.362 nM.

B1: Y-Aib-EGT-αMeF(2F)-TSD-4Pal-SI-αMeL-LD-Orn-IAQ-Aib-EFIK((2-[2-(2-Amino-ethoxy)-ethoxy]-acetyl)2-CO-(CH2)12-CO2H)-αMeY-LIEGGPSSGAPPP … (peptide)
peptide: YXEGTXTSDXSIXLDXIAQXEFIKXLIEGGPSSGAPPPSK
modifications: Aib2, αMeF(2F)6, 4Pal10, αMeL13, Orn16, Aib20, αMeY25; acylated K24, K40 (groups as in name); C-terminal amide
In the case of B1, the “cAMP EC50 (1.0% HSA)” value with human GLP-1 receptor is 21.2 nM; in the experiment with human glucagon receptor it was greater than 9950 nM; with human GIP receptor, 1.24 nM. Also, the “cAMP Emax (1.0% HSA)” value was 109% with human GLP-1 receptor and 80.7% with human GIP receptor.

B2: Y-Aib-EGT-αMeF(2F)-TSD-4Pal-SI-αMeL-LD-Orn-IAQ-Aib-EFI-(D-Glu)-αMeY-LIK((2-[2-(2-Amino-ethoxy)-ethoxy]-acetyl)2-(γ-Glu)-(4-(4-tert-butylphenyl)butanoyl))GGPSSGA … (peptide)
peptide: B1 peptide with K24X, E28K
modifications: Aib2, αMeF(2F)6, 4Pal10, αMeL13, Orn16, Aib20, D-Glu24, αMeY25; acylated K28, K40 (groups as in name); C-terminal amide
As to B2, the “cAMP EC50 (1.0% HSA)” value in the experiment with human GLP-1 receptor was 3.03 nM; with human glucagon receptor it was greater than 9950 nM; in the experiment with human GIP receptor, 0.242 nM. Besides, the “cAMP Emax (1.0% HSA)” value was 98.1% with human GLP-1 receptor and 77.6% in the experiment with human GIP receptor.

B3: Y-Aib-EGT-αMeF(2F)-TSD-4Pal-SI-αMeL-LD-Orn-K((2-[2-(2-Amino-ethoxy)-ethoxy]-acetyl)2-(γ-Glu)-CO-(CH2)12-CO2H)AQ-Aib-Orn-FI-(D-Glu)-αMeY-LIEGGK((2-[2-(2-Amino-et … (peptide)
peptide: YXEGTXTSDXSIXLDXKAQXXFIXXLIEGGKSSGAPPPS
modifications: Aib2, αMeF(2F)6, 4Pal10, αMeL13, Orn16, Aib20, Orn21, D-Glu24, αMeY25; acylated K17, K31 (groups as in name); C-terminal amide
Regarding B3, the “cAMP EC50 (1.0% HSA)” value with human GLP-1 receptor was 11 nM; with human glucagon receptor, greater than 9950 nM; with human GIP receptor, 0.35 nM. In addition, in the experiment with human GIP receptor, the “cAMP Emax (1.0% HSA)” value worked out at 81.3%.

B4: Y-Aib-EGT-αMeF(2F)-TSDY-Dap-I-αMeL-LD-Orn-K((2-[2-(2-Amino-ethoxy)-ethoxy]-acetyl)2-(γ-Glu)-CO-(CH2)12-CO2H)AQ-Aib-EFI-(D-Glu)-αMeY-LIEGGK((2-[2-(2-Amino-ethoxy … (peptide)
peptide: B3 peptide with X10Y, S11X, X21E
modifications: Aib2, αMeF(2F)6, Dap11, αMeL13, Orn16, Aib20, D-Glu24, αMeY25; acylated K17, K31 (groups as in name); C-terminal amide
In the case of B4, the “cAMP EC50 (1.0% HSA)” value with human GLP-1 receptor was 26.6 nM; in the experiment with human glucagon receptor it was greater than 9950 nM; with human GIP receptor it was 2.7 nM. Besides, the “cAMP Emax (1.0% HSA)” value with human GIP receptor amounted to 83.7%.

B5: Y-Aib-EGT-αMeF(2F)-TSD-4Pal-SI-αMeL-LD-Orn-K((2-[2-(2-Amino-ethoxy)-ethoxy]-acetyl)2-(γ-Glu)-CO-(CH2)12-CO2H)AQ-Aib-EFI-(D-Glu)-αMeY-LIEGGK((2-[2-(2-Amino-ethox … (peptide)
peptide: B3 peptide with X21E, S39X
modifications: Aib2, αMeF(2F)6, 4Pal10, αMeL13, Orn16, Aib20, D-Glu24, αMeY25, Orn39; acylated K17, K31 (groups as in name); C-terminal amide
For the molecule B5, the results for the “cAMP EC50 (1.0% HSA)” value with human GLP-1 receptor, with human glucagon receptor and with human GIP receptor were 70.5 nM, greater than 9950 nM and 1.34 nM, respectively. Besides, the figures for the “cAMP Emax (1.0% HSA)” value with human GLP-1 receptor and in the experiment with human GIP receptor were 103% and 93%, respectively.

B6: Y-Aib-EGT-αMeF(2F)-TSD-4Pal-Dap-I-αMeL-LD-Orn-K((2-[2-(2-Amino-ethoxy)-ethoxy]-acetyl)2-(γ-Glu)-CO-(CH2)12-CO2H)AQ-Aib-EFI-(D-Glu)-αMeY-LIEGGK((2-[2-(2-Amino-et … (peptide)
peptide: B3 peptide with S11X, X21E
modifications: Aib2, αMeF(2F)6, 4Pal10, Dap11, αMeL13, Orn16, Aib20, D-Glu24, αMeY25; acylated K17, K31 (groups as in name); C-terminal amide
B6: the “cAMP EC50 (1.0% HSA)” value was 70 nM with human GLP-1 receptor, greater than 9950 nM in the experiment with human glucagon receptor and 2.45 nM with human GIP receptor. Further, the results for the “cAMP Emax (1.0% HSA)” value with human GLP-1 receptor and with human GIP receptor were 100% and 77.1%, respectively.
